Biological target: T1, Ssa1 (UniProt P10591 1-642)
T1 construct: also called a member of the Hsp70 family (Ssa1); Saa1
Assay: ThT aggregation kinetics, global
Conditions: both partners purified

T1 sequence (P10591 whole entry): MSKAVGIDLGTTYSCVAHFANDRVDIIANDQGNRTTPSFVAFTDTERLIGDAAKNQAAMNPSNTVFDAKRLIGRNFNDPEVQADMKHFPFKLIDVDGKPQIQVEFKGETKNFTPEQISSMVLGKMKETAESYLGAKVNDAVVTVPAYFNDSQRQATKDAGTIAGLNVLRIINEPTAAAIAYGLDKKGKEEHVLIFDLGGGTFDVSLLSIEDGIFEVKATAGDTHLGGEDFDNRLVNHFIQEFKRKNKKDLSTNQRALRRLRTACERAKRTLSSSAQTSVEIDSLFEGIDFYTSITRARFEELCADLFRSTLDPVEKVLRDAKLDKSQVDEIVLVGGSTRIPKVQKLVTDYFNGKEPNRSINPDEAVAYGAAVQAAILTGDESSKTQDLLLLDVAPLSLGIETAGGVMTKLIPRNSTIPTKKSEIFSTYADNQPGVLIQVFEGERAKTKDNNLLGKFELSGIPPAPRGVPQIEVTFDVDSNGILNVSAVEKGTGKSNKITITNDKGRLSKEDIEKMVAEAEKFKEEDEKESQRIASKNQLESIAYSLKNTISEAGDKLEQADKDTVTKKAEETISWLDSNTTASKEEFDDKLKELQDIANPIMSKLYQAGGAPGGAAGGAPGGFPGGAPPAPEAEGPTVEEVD

B1: yeast prion protein Ure2p (natural protein, UniProt P23202 1-354, looked up)
chain: MMNNNGNQVSNLSNALRQVNIGNRNSNTTTDQSNINFEFSTGVNNNNNNNSSSNNNNVQNNNSGRNGSQNNDNENNIKNTLEQHRQQQQAFSDMSHVEYSRITKFFQEQPLEGYTLFSHRSAPNGFKVAIVLSELGFHYNTIFLDFNLGEHRAPEFVSVNPNARVPALIDHGMDNLSIWESGAILLHLVNKYYKETGNPLLWSDDLADQSQINAWLFFQTSGHAPMIGQALHFRYFHSQKIASAVERYTDEVRRVYGVVEMALAERREALVMELDTENAAAYSAGTTPMSQSRFFDYPVWLVGDKLTIADLAFVPWNNVVDRIGINIKIEFPEVYKWTKHMMRRPAVIKALRGE
notes: also called prion Ure2p
Question: B1 was tested. Which Ka did it give?
Answer: 300000 M⁻¹
